Assay results: PMC10943695, “Neutrophil elastase as a versatile cleavage enzyme for activation of αvβ3 integrin-targeted small molecule drug conjugates with different payload classes in the tumor microenvironment” (Frontiers in Pharmacology, 2024)
“Also recorded” adds a separate entry of the source. Read-outs that look alike come from different tables or passages of the source.

Assays:
[1] = Stability in rat plasma; assay type: in vitro ADME; settings: 37 °C
Experimental: The SMDC compounds 2, 3, 4, 5 and 6 (1 mg) were dissolved in acetonitrile/DMSO (1:1, 0.5 mL). While vortexing, 20 µL of this solution was added to 1 mL rat plasma at 37 °C. The incubation was stopped at respective time intervals by adding acetonitrile/buffer pH 3 (80:20) and the test compounds and formation of degradation products were analyzed by LC and LC/MS.

[2] = Hydrolytic stability in PBS buffer at pH 7.4; assay type: physicochemical; settings: PBS pH 7.4, 37 °C, 24 h
Experimental: For hydrolytic stability measurement, compounds 2, 3, 4, 5 and 6 (0.15 mg) were dissolved in acetonitrile/DMSO (4:1, 0.5 mL) and 1 mL of PBS buffer at pH 7.4 was then added. The sample solution was analyzed by HPLC to determine the amount of the test compound and the formation of degradation products over a period of 24 h at 37 °C.

[3] = system: NCI H69 SCLC xenograft; test: In vivo efficacy in NCI H69 SCLC xenograft model; parameters: species or system mice; settings: for Body weight changes: NCI H69 model, QWx2 (4: 5 mg/kg; 6: 40 mg/kg)
Experimental: For the NCI H69 study, immunocompromised mice were inoculated subcutaneously with 1.3 × 10^6 NCI H69 cells in 50% Matrigel/50% Media on day 0. Treatment was started at a mean tumor area in the range of […] in the NCI H69 model (n = 8/group, compound 4 at 5 mg/kg i. v., QW, and compound 6 at 40 mg/kg i. v., QW). In an independent experiment in the same CDX xenograft model compound 3 was tested at 10 mg/kg i. v., QW.

[4] = system: 786-O (human RCC) cells; test: In vitro cytotoxicity, MTT assay, in absence or presence of neutrophil elastase; assay type: cell-based; settings: 72 h exposure
Experimental: (§1) 786-O (human RCC), HT-29 (human CRC), NCI-H292 (human NSCLC), NCI-H69 (human SCLC), MX-1 (human TNBC), and SUM149PT (human IBC) cells were acquired from ATCC and cultured according to the provider’s instructions.
(§2) The in vitro cytotoxicity of the SMDCs in comparison to the respective payloads was tested in a panel of cancer cell lines after a 72 h continuous exposure in presence or absence of 20 nM neutrophil elastase using MTT assays (ATCC). IC50 values were determined as the concentration of compound required for 50% inhibition of cell viability.

[5] = system: HT-29 (human CRC) cells; test: as above; assay type: cell-based; settings: 72 h exposure
Experimental: as §1, §2

[6] = system: NCI-H292 (human NSCLC) cells; test: as above; assay type: cell-based; settings: 72 h exposure
Experimental: as §1, §2

[7] = system: SUM149PT (human IBC) cells; test: as above; assay type: cell-based; settings: 72 h exposure
Experimental: as §1, §2

[8] = Stability in human plasma; assay type: in vitro ADME; settings: 37 °C
[9] = Intravenous pharmacokinetics in rat; assay type: in vivo; settings: male Wistar rats, 0.5 mg/kg SMDC i.v., plasma; for AUC(0-inf) / half-life / clearance / Vd: rat, iv; for clearance: read-out: CLp; for Vd: read-out: Vss
Experimental: Pharmacokinetic properties of SMDCs and their respective payloads were characterized in rats. Briefly, male Wistar rats (n = 3) were given a 0.5 mg/kg dose of SMDC formulated in plasma/DMSO (99:1) intravenously (i.v.) via tail vein. Blood was collected at pre-dose, 2, 5, 15, 30, 45, 60 min, 2, 4, 7, 24 h post-dose and then processed to plasma. Plasma was frozen at < −20°C until sample analysis. Plasma samples were analyzed for concentrations of SMDCs and their respective released payloads by LC-MS/MS.
(§3) Pharmacokinetics of SMDCs and their respective payloads from in vivo studies were determined using mean concentration-time profiles. All pharmacokinetic parameters were calculated by non-compartmental methods as previously described ([Perrier and Gibaldi, 1982]).

[10] = Plasma and tumor pharmacokinetics in NCI H69 tumor-bearing mice; assay type: in vivo; settings: single dose Compound 3 10 mg/kg IV, analyte conjugate 3 or released payload 8
Experimental: In order to assess the selective concentration of payload to tumor tissue, the pharmacokinetic properties of the SMDC 3 and its payload 8, in plasma and tumor was also characterized in female NMRI nu/nu xenograft mice (Taconic M&B A/S) bearing NCI H69 human small cell lung cancer tumors. The mice were treated i. v. via the tail vein with a single dose of 3 at 10 mg/kg. Plasma and tumor samples were collected at 0.25, 1, 7, and 24 h after treatment (n = 2 mice/group at each time point) and were stored frozen at < −20°C until sample analysis. Concentrations of the SMDCs and their respective payloads were measured by LC-MS/MS.
as §3

[11] = target: T1, human neutrophil elastase (Homo sapiens, UniProt P08246); test: Human neutrophil elastase cleavability assay; assay type: biochemical; settings: 5 µM SMDC, 20, 40, 60 nM NE, 1 h, 37°C
T1 sequence (P08246 30-267): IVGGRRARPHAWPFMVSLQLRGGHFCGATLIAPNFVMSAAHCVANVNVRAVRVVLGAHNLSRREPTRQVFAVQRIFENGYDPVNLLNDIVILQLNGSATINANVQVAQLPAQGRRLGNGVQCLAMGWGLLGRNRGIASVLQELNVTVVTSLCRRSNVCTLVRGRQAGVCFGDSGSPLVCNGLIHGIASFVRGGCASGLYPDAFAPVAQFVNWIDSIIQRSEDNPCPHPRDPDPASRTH
Experimental: For the NE cleavability assay, the SMDC test compound was added to buffer (150 mM NaCl, 10 mM CaCl2, 0.05% BSA) to a final concentration of 5 µM (0.5% DMSO). The reaction was started by adding different concentrations of human NE (0, 20, 40, 60 nM) to the reaction vials. After incubation for 1 h at 37°C, the enzymatic reaction was stopped by precipitation in 50% ACN. Subsequently, the samples were subjected to HPLC-MS analysis to determine the concentration of test compound and of its metabolite.

[12] = with 20 nM neutrophil elastase, read-out: IC50 786–0 + neutrophil elastase
[13] = without neutrophil elastase, read-out: IC50 786–0
[14] = with 20 nM neutrophil elastase, read-out: IC50 HT29 + neutrophil elastase
[15] = without neutrophil elastase, read-out: IC50 HT29
[16] = with 20 nM neutrophil elastase, read-out: IC50 NCI-H292 + neutrophil elastase
[17] = without neutrophil elastase, read-out: IC50 NCI-H292
[18] = with 20 nM neutrophil elastase, read-out: IC50 SUM149 PT + neutrophil elastase
[19] = without neutrophil elastase, read-out: IC50 SUM149PT

Compound | Stability in rat plasma [1] | Stability in buffer pH 7.4 [2] | Body weight changes [3] | IC50 [4, 12] | IC50 [4, 13] | IC50 [5, 14] | IC50 [5, 15] | IC50 [6, 16] | IC50 [6, 17] | IC50 [7, 18] | IC50 [7, 19] | Stability in human plasma [8] | AUC(0-inf) [9] | half-life [9] | clearance [9] | Vd [9] | Vss [9] | other results
CCCNC(=O)Nc1cccc(S(=O)(=O)Nc2cccc([C@@H](CC(=O)O)NC(=O)Nc3ccc(NC(=O)NCCOCCOCCOCCC(=O)N[C@@H](CC(=O)O)C(=O)N4CCC[C@H]4C(=O)N[C@H](C(=O)O[C@@H](c4ccccc4)[C@@H](C)NC(=O)[C@H](C)[C@@H](OC)[C@@H]4CCCN4C(=O)C[C@@H](OC)[C@H]([C@@H](C)CC)N(C)C(=O)[C@@H](NC(=O)[C@@H](NC)C(C)C)C(C)C)C(C)C)cc3)c2)c1 [Compound 4] | highly stable | highly stable | very minor | 6.6 nM | 660 nM | 0.43 nM | 78 nM | 0.35 nM | 71 nM | 0.51 nM | 50 nM | highly stable | 3.03 ± 0.11 µM·h | 138 ± 57 min | 1.47 ± 0.06 mL/min/kg | 0.157 ± 0.015 L/kg | – | –
CCCNC(=O)Nc1cccc(S(=O)(=O)Nc2cccc([C@@H](CC(=O)O)NC(=O)Nc3ccc(NC(=O)NCCOCCOCCOCCC(=O)N[C@@H](CC(=O)O)C(=O)N4CCC[C@H]4C(=O)N[C@H](C(=O)N[C@@H](CCN(C(=O)CO)[C@@H](c4cc(-c5cc(F)ccc5F)cn4Cc4ccccc4)C(C)(C)C)C(=O)NC)C(C)C)cc3)c2)c1 [Compound 6] | highly stable | Very small fractions of a degradation product; also recorded: highly stable | very minor | 8.7 nM | – | 1.7 nM | – | 1.3 nM | – | 0.6 nM | – | highly stable | 2.98 ± 0.25 µM·h | 26.5 ± 1.38 min | 1.69 ± 0.15 mL/min/kg | 0.0377 ± 0.005 L/kg | comparable to plasma volume | –
CCCNC(=O)Nc1cccc(S(=O)(=O)Nc2cccc([C@@H](CC(=O)O)NC(=O)Nc3ccc(NC(=O)NCCOCCOCCOCCC(=O)N[C@@H](CC(=O)O)C(=O)N4CCC[C@H]4C(=O)N[C@H](C(=O)N=S(C)(=O)Cc4cc5cc(c4)OC(C)CCOc4cc(F)ccc4-c4nc(ncc4F)N5)C(C)C)cc3)c2)c1 (stereo partly drawn) [Compound 3] | highly stable | highly stable | – | 3.1 nM | > 1000 nM | 1.9 nM | 990 nM | 4.5 nM | 880 nM | 1.2 nM | 770 nM | highly stable | – | – | – | – | comparable to plasma volume | Tumor growth NCI H69 ([3]; 10 mg/kg i.v. weekly, 3 treatment cycles): No significant inhibition; AUC(0-t) ([10]; mouse, in vivo, plasma): 43 µM·h; Cmax ([10]; mouse, in vivo, plasma): 49 µM; tumor/plasma AUC ratio [10]: 0.126; payload/parent AUC ratio ([9]; molar basis, 0.5 mg/kg): 0.307; AUC(0-inf) ([9]; in vivo): 0.801 ± 0.126 µM·h; half-life ([9]; in vivo): 14.4 ± 3 min; clearance ([9]; in vivo): 6.6 ± 0.95 mL/min/kg; Vd ([9]; in vivo): 0.0366 ± 0.0053 L/kg; Cleavage by human NE [11]: essentially completely cleaved
